In experiment [1] the target is CT-MRAP2, C-terminal domain of MRAP2 fused to a poly-his tag (human) (UniProt Q96G30). The experiment in a line: SDS-PAGE; purified His-tagged CT-MRAP2 resolved by SDS-PAGE under denaturing conditions, anti-His blot.
Experiment [2] shares this target. The experiment in a line: native gel or EMSA; blue native PAGE of 20 μg purified C-terminal MRAP2 domain, 3% to 16% Bis-Tris gel, 0 °C, anti-His blot; molecular weights only approximate. A general note: Mobility shift assays separate free from complexed probe on a gel.

The values that follow come from paper PMC8946000.

Broadly, the stoichiometry N is a count of units in the complex or per binding partner.

Consider “CT-MRAP2, C-terminal domain of MRAP2 fused to a poly-his tag (from UniProt Q96G30 76-205) (domain or fragment)”, for which the stoichiometry N in experiment [1] and in experiment [2] was 2 each time.
